Measured values reported in article PMC2650471, “The structure of NMB1585, a MarR-family regulator from Neisseria meningitidis” (Acta Crystallographica Section F: Structural Biology and …, 2009).

Biological target: the molecule itself
Experiment: crystal structure; selenomethionine-labelled NMB1585, 9.7 mg/ml in 20 mM Tris pH 7.5, 200 mM NaCl, 1 mM TCEP; crystals from 0.1 M HEPES pH 7.5, 25% PEG 3350, 0.2 M ammonium chloride; space group P2(1), two subunits per asymmetric unit; 2.1 Å

B1: NMB1585, MarR-family transcription factor from Neisseria meningitidis (natural protein)
chain: MNQLDQLGTRINLICNVFDKWIGQQDLNYNLFAVLYTLATEGSRTQKHIGEKWSLPKQTVSGVCKTLAGQGLIEWQEGEQDRRKRLLSLTETGKAYAAPLTESAQEFSDKVFATFGDKRTTRLFADLDALAEVMEKTISENKK
modifications: selenomethionine-labelled (selenomethionine in place of methionine)
notes: NMB1585, MarR-family regulator, Neisseria meningitidis strain MC58; amplified from genomic DNA with primers that run from the ATG start codon to the stop codon; cloned into pDEST17 with an N-terminal His tag and a 3C protease cleavage site; also called meningococcal MarR; source: tag removed with 3C protease; not shown: His tag, N-terminal, cleaved
stoichiometry N: 2
